Source: the Human Domainome abundance scans (Beltran et al. 2025)
± gives the uncertainty stated by the source.

B1: POU domain, class 5, transcription factor 1, residues 134 to 212; numbered along this chain, Q01860 (parent)
chain: EESQDIKALQKELEQFAKLLKQKRITLGYTQADVGLTLGVLFGKVFSQTTICRFEALQLSFKNMCKLRPLLQKWVEEAD

Variants of: B1
Assay: abundance fitness (aPCA) (normalised: wild type 0, dead -1); higher = more abundant; growth selection in yeast, the domain comes from the species named
Settings: Homo sapiens

| Variant | abundance fitness |
| --- | --- |
| EESQDIKALQKELEQFAKLLKQKRITLGYTQADVGLTLGVLFGKVFSQTTICRFEALQLSFKNMCKLRPLLQKWVEEAR [D79R] | -0.187 ± 0.18 |
| EESQDIKALQKELEQFAKLLKQKRITLGYTQADVGLTLGVLFGKVFSQTTICKFEALQLSFKNMCKLRPLLQKWVEEAD [R53K] | 0.029 ± 0.41 |
| EESQDIKALQKELEQFAKLLKQKRITLGYTQADVGLTLGVLFGKVFSQTTICDFEALQLSFKNMCKLRPLLQKWVEEAD [R53D] | -0.027 ± 0.23 |
| EESQDIKALQKELEQFAKLLKQKRITVGYTQADVGLTLGVLFGKVFSQTTICRFEALQLSFKNMCKLRPLLQKWVEEAD [L27V] | -0.588 ± 0.14 |
| EESQDIKALQKEEEQFAKLLKQKRITLGYTQADVGLTLGVLFGKVFSQTTICRFEALQLSFKNMCKLRPLLQKWVEEAD [L13E] | -0.484 ± 0.39 |
| EESQDIKALQKEVEQFAKLLKQKRITLGYTQADVGLTLGVLFGKVFSQTTICRFEALQLSFKNMCKLRPLLQKWVEEAD [L13V] | -0.228 ± 0.14 |
| EESQDIKALQKELEQFAKLLKQKRITLGYTQADVGLTLGVLFGKVFSQTTICRFEALQLSFKNMCSLRPLLQKWVEEAD [K66S] | 0.003 ± 0.12 |
| EESQDIKALQKELEQFAKLLKQKRITLGYTQADVGLTLGVLFGKVFSQTTICRFEALQLSFKNMCALRPLLQKWVEEAD [K66A] | -0.011 ± 0.097 |
| EESQDIKALQKELEQFAKLLKQKRITLGYTQADVGLTLGVLFGKVFSQTTICRFETLQLSFKNMCKLRPLLQKWVEEAD [A56T] | -0.243 ± 0.24 |
| EESQDIKALQKELEQFAKLLKQKRITLGYTQADVGLTLGVLFGKVFSQTTICRFEGLQLSFKNMCKLRPLLQKWVEEAD [A56G] | -0.06 ± 0.076 |
| EESQDIKALQKELEQFAKLLKQKRITLGYTQADVGLTLGVLFGKVFSQTTICRFEPLQLSFKNMCKLRPLLQKWVEEAD [A56P] | -0.345 ± 0.37 |
| EESQDIKALQKELEQFAKLLKQKRITLGYTQADVGLTLGVLFGKVFSQTTICRFEKLQLSFKNMCKLRPLLQKWVEEAD [A56K] | -0.197 ± 0.18 |
| EESQDIKALQKELEQFAKLLKQKRITLGYTQAQVGLTLGVLFGKVFSQTTICRFEALQLSFKNMCKLRPLLQKWVEEAD [D33Q] | 0.236 ± 0.13 |
| EESQDIKALQKELEQFAKLLKQKRITLGYTQASVGLTLGVLFGKVFSQTTICRFEALQLSFKNMCKLRPLLQKWVEEAD [D33S] | -0.572 ± 0.19 |
| EESQDIKALQKELEQFAKLLKQKRITLGYTQAEVGLTLGVLFGKVFSQTTICRFEALQLSFKNMCKLRPLLQKWVEEAD [D33E] | -0.081 ± 0.13 |
| EESQDIKALQKELEQFAKLLKQKRITLGYTQAWVGLTLGVLFGKVFSQTTICRFEALQLSFKNMCKLRPLLQKWVEEAD [D33W] | -0.563 ± 0.23 |
| EESQDIKTLQKELEQFAKLLKQKRITLGYTQADVGLTLGVLFGKVFSQTTICRFEALQLSFKNMCKLRPLLQKWVEEAD [A8T] | 0.429 ± 0.3 |
| EESQDIKALQKELEQFAKLLKQKRITLGYTQADVGLTLGVLFGKVFSQTTICRFEALQLAFKNMCKLRPLLQKWVEEAD [S60A] | -0.273 ± 0.14 |

| Variant | abundance fitness |
| --- | --- |
| EESQDIKALQKELEQFAKLLKQKRITLGYTQADVGLTLGVLFGKVFSQTTICRFEALQLCFKNMCKLRPLLQKWVEEAD [S60C] | -0.449 ± 0.47 |
| EESQDIKALQKELEQFAKLLKQKRITLGRTQADVGLTLGVLFGKVFSQTTICRFEALQLSFKNMCKLRPLLQKWVEEAD [Y29R] | -0.383 ± 0.096 |
| EESQDIKALQKELEQFAKLLKQKRITLGQTQADVGLTLGVLFGKVFSQTTICRFEALQLSFKNMCKLRPLLQKWVEEAD [Y29Q] | 0.068 ± 0.19 |
| EESQDIKALQKELEQFAKLLKQKRITLGYTQADVGLTLGVLFGKVFSQTTICRFEALQLSFKNMCKLRPLLQFWVEEAD [K73F] | -0.566 ± 0.34 |
| EESQDIKALQKELEQFAKLLKQKRITLGYTQADVGLTLGVLFGKVFSQTTICRFEALQLSFKNMCKLRPLWQKWVEEAD [L71W] | -0.323 ± 0.15 |
| EESQDIKALQKELEQFAKLLKQKRITLGYTQADVGLTLGVLFGKVFSQTTICRFEAVQLSFKNMCKLRPLLQKWVEEAD [L57V] | -0.066 ± 0.13 |
| EESQDIKALQKELEQFAKLLKQKRITLGYTQADVGLTLGILFGKVFSQTTICRFEALQLSFKNMCKLRPLLQKWVEEAD [V40I] | 0.038 ± 0.27 |
| EESEDIKALQKELEQFAKLLKQKRITLGYTQADVGLTLGVLFGKVFSQTTICRFEALQLSFKNMCKLRPLLQKWVEEAD [Q4E] | -0.13 ± 0.1 |
| EESQDIKALQKELCQFAKLLKQKRITLGYTQADVGLTLGVLFGKVFSQTTICRFEALQLSFKNMCKLRPLLQKWVEEAD [E14C] | -0.476 ± 0.24 |
| EESQDIKALQKELEQFAKLLKQKRITLGYTQADVGLTLGVLFGKVFSQTTICRFEALQLSFKDMCKLRPLLQKWVEEAD [N63D] | -0.093 ± 0.24 |
| EESQDIKALQKELEQFAKLLKQKRITLGYTQADVGLTLVVLFGKVFSQTTICRFEALQLSFKNMCKLRPLLQKWVEEAD [G39V] | -0.85 ± 0.27 |
| EESQDIKALQKELEQFAKLLKQKRITLGYTQADVGLTLWVLFGKVFSQTTICRFEALQLSFKNMCKLRPLLQKWVEEAD [G39W] | -0.712 ± 0.33 |
| EESQDIKALQKELEQFAKLLKQKRITLGYTQADVGLTLHVLFGKVFSQTTICRFEALQLSFKNMCKLRPLLQKWVEEAD [G39H] | -0.441 ± 0.39 |
| EESQDIKALQKELEQFAKLLKQKRITLGYTQADVGLTLPVLFGKVFSQTTICRFEALQLSFKNMCKLRPLLQKWVEEAD [G39P] | -0.325 ± 0.27 |
| EESQDIKALQKELEQFAMLLKQKRITLGYTQADVGLTLGVLFGKVFSQTTICRFEALQLSFKNMCKLRPLLQKWVEEAD [K18M] | 0.052 ± 0.15 |
| EESQDIKALQKELEQFAKLLKQKRITLGYTQADVGLTLGVLFGKVFSQTTICRFEALQLSFKNMCKLRPLLQKWWEEAD [V75W] | -0.802 ± 0.39 |
| EESQDIKALQKELEAFAKLLKQKRITLGYTQADVGLTLGVLFGKVFSQTTICRFEALQLSFKNMCKLRPLLQKWVEEAD [Q15A] | 0.127 ± 0.12 |
